Reference: US20120045393A1 (priority 2009, published 2012)
Non-standard residues stand in square brackets, D forms with d. Primed or numbered codes have the meaning given here. DO3A10CM″ = chelating group at the N-terminus (X in the sequence tables); azaGly′ = aza-glycine residue at the C-terminus, with NH2; Bpa = N[C@@H](Cc1ccc(C(=O)c2ccccc2)cc1)C(=O)O; d2Nal = N[C@H](Cc1ccc2ccccc2c1)C(=O)O; 3Pal = N[C@@H](Cc1cccnc1)C(=O)O; DO3A10CM = not defined here; Chmgly = not defined here; Dnalg1 = not defined here; Ampa4 = not defined here; Ampg4 = not defined here; Gufe4 = not defined here; Iegly = not defined here; Tdgly = not defined here; dAfe4 = not defined here; Thz′ = not defined here; Tha = not defined here; azaGly = NNC(=O)O; Sar = CNCC(=O)O

B1: BRU-2788 (peptide)
peptide: XHWSHXWXPX
modifications: DO3A10CM on N-terminus; AA1 EtGly; AA6 Darg; AA8 Bpa4; AA10 azaGly-NH2
B2: BRU-2760 (peptide)
peptide: XHWSHXWXPX
modifications: DO3A10CM on N-terminus; AA1 Sar; AA6 Darg; AA8 Amfe4; AA10 azaGly-NH2
B3: BRU-2737 (peptide)
peptide: XHWSHXWXPX
modifications: DO3A10CM on N-terminus; AA1 Ambz4; AA6 Darg; AA8 Bpa4; AA10 azaGly-NH2
B4: BRU-2768 (peptide)
peptide: DO3A10CM-[Sar][Tha]WSH[dR]W[Bpa]P[azaGly]-NH2
modifications: reading uncertain
B5: BRU-2815 (peptide)
peptide: DO3A10CM-[Sar][dAfe4]WSH[dR]W[Bpa]P[azaGly]-NH2
modifications: reading uncertain
B6: BRU-2818 (peptide)
peptide: DO3A10CM-[Sar][3Pal]WSH[dR]W[Bpa]P[azaGly]-NH2
modifications: reading uncertain
B7: BRU-3060 (peptide)
peptide: DO3A10CM-[d2Nal][Ampg4]WSH[dR]W[Bpa]P[azaGly′]-NH2
modifications: not fully specified; printed as DO3A10CM-Dnal2-Ampg4-Trp-Ser-His-Darg-Trp-Bpa4-Pro-azaGly-NH2; reading uncertain
B8: BRU-2809 (peptide)
peptide: XHWSHXWXPX
modifications: DO3A10CM on N-terminus; AA1 Nal2; AA6 Darg; AA8 Bpa4; AA10 azaGly-NH2
B9: BRU-3052 (peptide)
peptide: GXRWSHXWXPX
modifications: DO3A10CM-Gly (linker) on N-terminus; AA1 Tic; AA6 Darg; AA8 Bpa4; AA10 azaGly-NH2
B10: BRU-3112 (peptide)
peptide: XRXSHXWXPX
modifications: DO3A10CM on N-terminus; AA1 Dnal2; AA3 Dtrp; AA6 Darg; AA8 Bpa4; AA10 azaGly-NH2
B11: BRU-2820 (peptide)
peptide: XHWSHXWXPX
modifications: DO3A10CM on N-terminus; AA1 Sar; AA6 Darg; AA8 Tyr(OBz); AA10 azaGly-NH2
B12: BRU-2878 (peptide)
peptide: DO3A10CM-G[Tdgly]HWSHRW[Bpa]P[azaGly]-NH2
modifications: not fully specified (residue 7); reading uncertain; also: AA6 Darg prints R
B13: BRU-2726 (peptide)
peptide: XHWSHXWXPX
modifications: DO3A10CM on N-terminus; AA1 Sar; AA6 Darg; AA8 Pal3; AA10 azaGly-NH2
B14: BRU-2870 (peptide)
peptide: XHWSHXWXPX
modifications: DO3A10CM on N-terminus; AA1 Dtyr; AA6 Darg; AA8 Bpa4; AA10 azaGly-NH2
B15: BRU-3092 (peptide)
peptide: XRWSHXWXPX
modifications: DO3A10CM on N-terminus; AA1 Cafe4; AA6 Darg; AA8 Bpa4; AA10 azaGly-NH2
B16: BRU-2958 (peptide)
peptide: XRWSXXWXPX
modifications: DO3A10CM on N-terminus; AA1 Dnal2; AA5 Tha; AA6 Darg; AA8 Bpa4; AA10 azaGly-NH2
B17: BRU-2742 (peptide)
peptide: XHWSHXWXPX
modifications: DO3A10CM on N-terminus; AA1 Sar; AA6 Darg; AA8 Tha; AA10 azaGly-NH2
B18: BRU-2720 (peptide)
peptide: XHWSHXWXPX
modifications: DO3A10CM on N-terminus; AA1 Sar; AA6 Darg; AA8 Nal1; AA10 azaGly-NH2
B19: BRU-2762 (peptide)
peptide: {DO3A10CM″}-[Sar][Tha]WS[Tha][dR]W[Bpa]P[azaGly]-NH2
modifications: reading uncertain
B20: BRU-2739 (peptide)
peptide: {DO3A10CM″}-[Sar][His(pime)]WS[Tha][dR]W[Bpa]P[azaGly]-NH2
modifications: reading uncertain
B21: BRU-2441 (peptide)
peptide: XHWSHXWXPX
modifications: AA1 Sar; AA6 Darg; AA8 Bpa4; AA10 azaGly-NH2
B22: BRU-3051 (peptide)
peptide: XRWSHXWXPX
modifications: DO3A10CM on N-terminus; AA1 Nal2; AA6 Darg; AA8 Bpa4; AA10 azaGly-NH2
B23: BRU-2728 (peptide)
peptide: DO3A10CM-G[Thz′]HWSH[dR]W[Bpa]P[azaGly]-NH2
modifications: reading uncertain
B24: BRU-2719 (peptide)
peptide: XXWSHXWXPX
modifications: DO3A10CM on N-terminus; AA1 Sar; AA2 4ClPhe; AA6 Darg; AA8 Bpa4; AA10 azaGly-NH2
B25: BRU-2770 (peptide)
peptide: DO3A10CM-G[Dnalg1]HWSH[dR]W[Bpa]P[azaGly]-NH2
modifications: reading uncertain
B26: BRU-2907 (peptide)
peptide: XHWSHXWXPX
modifications: DO3A10CM on N-terminus; AA1 Sar; AA6 Darg; AA8 Bpa(NOH); AA10 azaGly-NH2
B27: BRU-3058 (peptide)
peptide: DO3A10CM-[d2Nal][Gufe4]WSH[dR]W[Bpa]P[azaGly′]-NH2
modifications: reading uncertain
B28: BRU-2881 (peptide)
peptide: XHWSHXWXPX
modifications: AA1 Ac-Amfe4 with (DO3A10CM) as printed; AA6 Darg; AA8 Bpa4; AA10 azaGly-NH2
B29: BRU-2765 (peptide)
peptide: XHWSHXWXPX
modifications: DO3A10CM on N-terminus; AA1 Sar; AA6 Darg; AA8 Ing2; AA10 azaGly-NH2
B30: BRU-3030 (peptide)
peptide: XRWSXXWXPX
modifications: DO3A10CM on N-terminus; AA1 Dnal2; AA5 Cit; AA6 Darg; AA8 Bpa4; AA10 azaGly-NH2
B31: BRU-2819 (peptide)
peptide: XHWSHXWXPX
modifications: DO3A10CM on N-terminus; AA1 Sar; AA6 Darg; AA8 Dtyr(OBz); AA10 azaGly-NH2
B32: BRU-2965 (peptide)
peptide: XRWSHXWXPX
modifications: DO3A10CM on N-terminus; AA1 Mednal2; AA6 Darg; AA8 Bpa4; AA10 azaGly-NH2
B33: BRU-2817 (peptide)
peptide: XRWSHXWXPX
modifications: DO3A10CM on N-terminus; AA1 Sar; AA6 Darg; AA8 Bpa4; AA10 azaGly-NH2
B34: BRU-3003 (peptide)
peptide: XHWSHXWXPX
modifications: DO3A10CM on N-terminus; AA1 Mednal2; AA6 Darg; AA8 Bpa4; AA10 azaGly-NH2
B35: BRU-2718 (peptide)
peptide: XHWSHXWXPX
modifications: DO3A10CM on N-terminus; AA1 Sar; AA6 Darg; AA8 Cha; AA10 azaGly-NH2
B36: BRU-2759 (peptide)
peptide: {DO3A10CM″}-[Sar][His(pime)]WSH[dR]W[Bpa]P[azaGly]-NH2
B37: BRU-3001 (peptide)
peptide: DO3A10CM-[d2Nal]RWSR[dW]W[Bpa]P[azaGly]-NH2
modifications: reading uncertain
B38: BRU-2764 (peptide)
peptide: XHWSHXWXPX
modifications: DO3A10CM on N-terminus; AA1 Sar; AA6 Darg; AA8 Aic2; AA10 azaGly-NH2
B39: BRU-3067 (peptide)
peptide: GXRWSHXWXPX
modifications: DO3A10CM-Gly (linker) on N-terminus; AA1 Dtic; AA6 Darg; AA8 Bpa4; AA10 azaGly-NH2
B40: BRU-2957 (peptide)
peptide: XRWXHXWXPX
modifications: DO3A10CM on N-terminus; AA1 Dnal2; AA4 Pal4; AA6 Darg; AA8 Bpa4; AA10 azaGly-NH2
B41: BRU-2879 (peptide)
peptide: DO3A10CM-G[Iegly]HWSHRW[Bpa]P[azaGly]-NH2
modifications: not fully specified (residue 7); reading uncertain; also: AA6 Darg prints R
B42: BRU-3109 (peptide)
peptide: XRXSHXWXPX
modifications: DO3A10CM on N-terminus; AA1 Dnal2; AA3 Pal3; AA6 Darg; AA8 Bpa4; AA10 azaGly-NH2
B43: BRU-2758 (peptide)
peptide: {DO3A10CM″}-[Sar]HWSH[dR]WYP[azaGly]-NH2
B44: BRU-2877 (peptide)
peptide: DO3A10CM-G[Chmgly]HWSHRW[Bpa]P[azaGly]-NH2
modifications: not fully specified (residue 7); reading uncertain; also: AA6 Darg prints R
B45: BRU-3059 (peptide)
peptide: DO3A10CM-[d2Nal][Ampa4]WSH[dR]W[Bpa]P[azaGly′]-NH2
modifications: not fully specified; printed as DO3A10CM-Dnal2-Ampa4-Trp-Ser-His-Darg-Trp-Bpa4-Pro-azaGly-NH2; reading uncertain
B46: BRU-2962 (peptide)
peptide: GXRWSHXWXPX
modifications: N-terminal DO3A10CM; Gly linker before 1; Dnal2 at 1; Darg at 6; Bpa4 at 8; azaGly-NH2 at 10
B47: BRU-3050 (peptide)
peptide: RRWSHXWXPX
modifications: N-terminal DO3A10CM; Darg at 6; Bpa4 at 8; azaGly-NH2 at 10
B48: BRU-2964 (peptide)
peptide: DO3A10CM-[d2Nal]RWMH[dR]W[Bpa]P[azaGly]-NH2
modifications: reading uncertain; also: printed as DO3A10CM-Dnal2-Arg-Trp-Met-His-Darg-Trp-Bpa4-Pro-azaGly-NH2
B49: BRU-3025 (peptide)
peptide: HRWSHXWXPX
modifications: N-terminal DO3A10CM; Darg at 6; Bpa4 at 8; azaGly-NH2 at 10
B50: BRU-2839 (peptide)
peptide: XHWSHXWXPX
modifications: Ac-Amfe4 at 1; Darg at 6; Bpa4 at 8; azaGly-NH2 at 10
B51: BRU-2822 (peptide)
peptide: XHWSHXWXPX
modifications: pGlu at 1; Darg at 6; Bpa4 at 8; azaGly-NH2 at 10
B52: BRU-2811 (peptide)
peptide: HWSHXWXPX
modifications: N-terminal DO3A10CM on His (AA1 absent); Darg at AA6; Bpa4 at AA8; azaGly-NH2 at AA10
B53: BRU-3111 (peptide)
peptide: XRRSHXWXPX
modifications: N-terminal DO3A10CM; Dnal2 at 1; Darg at 6; Bpa4 at 8; azaGly-NH2 at 10
B54: BRU-3106 (peptide)
peptide: XRFSHXWXPX
modifications: N-terminal DO3A10CM; Dnal2 at 1; Darg at 6; Bpa4 at 8; azaGly-NH2 at 10
B55: BRU-3031 (peptide)
peptide: XRWSHRWXPX
modifications: N-terminal DO3A10CM; Dnal2 at 1; Bpa4 at 8; azaGly-NH2 at 10 (L-Arg at 6)
B56: BRU-2803 (peptide)
peptide: XHWSHXWXPX
modifications: Ac-Dnal2 at 1; Darg at 6; Bpa4 at 8; azaGly-NH2 at 10
B57: BRU-3098 (peptide)
peptide: KXRWSHXWXPX
modifications: Lys(DO3A10CM) before 1 (chelator on the Lys side chain); Dnal2 at 1; Darg at 6; Bpa4 at 8; azaGly-NH2 at 10
B58: BRU-2997 (peptide)
peptide: XRWSHXWXPX
modifications: N-terminal DO3A10CM; Damfe4 at 1; Darg at 6; Bpa4 at 8; azaGly-NH2 at 10
B59: BRU-3027 (peptide)
peptide: XRWSHXWXPX
modifications: N-terminal DO3A10CM; Dnal2 at 1; Darg at 6; Nal2 at 8; azaGly-NH2 at 10
B60: BRU-2956 (peptide)
peptide: XRWNHXWXPX
modifications: N-terminal DO3A10CM; Dnal2 at 1; Darg at 6; Bpa4 at 8; azaGly-NH2 at 10
B61: BRU-2963 (peptide)
peptide: XXRWSHXWXPX
modifications: N-terminal DO3A10CM; Ambz4 linker before 1; Dnal2 at 1; Darg at 6; Bpa4 at 8; azaGly-NH2 at 10

Each binder was assayed against LHRH binding sites on EFO-27 human ovarian cancer cells (human) (assay: competition with [125I-Tyr8]BRU-2477 on EFO-27 cells).

Binder | EC50 [nM] | times more potent than BRU-2439 [times] | fold reduction in binding potency against BRU-2813 [fold]
B1 | 210 |  | 
B2 | 3550 |  | 
B3 | 1400 |  | 
B4 | 12800 |  | 
B5 | 7250 |  | 
B6 | 1620 |  | 
B7 | 340 |  | 
B8 | 3540 |  | 
B9 | 550 |  | 
B10 | 850 |  | 
B11 | 1570 |  | 
B12 | 4480 |  | 
B13 | 17400 |  | 
B14 | 10000 |  | 
B15 | 2000 |  | 
B16 | 710 |  | 
B17 | 10000 |  | 
B18 | 540 |  | 
B19 | 15000 |  | 
B20 | 5280 |  | 
B21 | 140 | 2 | 
B22 | 620 |  | 
B23 | 3150 |  | 

Binder | EC50 [nM] | times more potent than BRU-2439 [times] | fold reduction in binding potency against BRU-2813 [fold]
B24 | 630 |  | 
B25 | 2700 |  | 
B26 | 1900 |  | 
B27 | 260 |  | 
B28 | 1380 |  | 
B29 | 8710 |  | 
B30 | 930 |  | 
B31 | 770 |  | 
B32 | 580 |  | 2
B33 | 1700 |  | 
B34 | 760 |  | 
B35 | 630 |  | 
B36 | 10000 |  | 
B37 | 3280 |  | 
B38 | 4310 |  | 
B39 | 510 |  | 
B40 | 840 |  | 
B41 | 1030 |  | 
B42 | 730 |  | 
B43 | 10000 |  | 
B44 | 900 |  | 
B45 | 410 |  | 

These binders were tested against LHRH receptor (LHRH binding sites) on EFO-27 human ovarian cancer cells (human) (assay: competition with [125I-Tyr8]BRU-2477, EFO-27 cells).

Binder | EC50 [nM]
B46 | 470
B47 | 310
B48 | 220
B7 | 340
B49 | 470
B50 | 250
B51 | 420
B52 | 360
B21 | 140
B53 | 250
B54 | 430
B55 | 310
B56 | 260
B57 | 410
B58 | 330
B27 | 260
B59 | 370
B60 | 270
B61 | 280
B45 | 410
